From US20160263155A1, “T CELL RECEPTORS DIRECTED AGAINST THE PREFERENTIALLY EXPRESSED ANTIGEN OF MELANOMA AND USES THEREOF” (LEIDEN UNIVERSITY MEDICAL CENTER, priority 2015, published 2016)
Residue numbers refer to the chain shown, from its start. Names may count otherwise.

B1: ^316ATPF^319AVPI: Caspase-9 mutant (SEQ ID NOS 97 and 98) (SMAC/Diablo) (protein, UniProt P55211 1-416, looked up, variant T317V F319I)
chain: MDEADRRLLRRCRLRLVEELQVDQLWDALLSRELFRPHMIEDIQRAGSGSRRDQARQLIIDLETRGSQALPLFISCLEDTGQDMLASFLRTNRQAAKLSKPTLENLTPVVLRPEIRKPEVLRPETPRPVDIGSGGFGDVGALESLRGNADLAYILSMEPCGHCLIINNVNFCRESGLRTRTGSNIDCEKLRRRFSSLHFMVEVKGDLTAKKMVLALLELAQQDHGALDCCVVVILSHGCQASHLQFPGAVYGTDGCPVSVEKIVNIFNGTSCPSLGGKPKLFFIQACGGEQKDHGFEVASTSPEDESPGSNPEPDAVPIQEGLRTFDQLDAISSLPTPSDIFVSYSTFPGFVSWRDPKSGSWYVETLDDIFEQWAHSEDLQSLLLRVANAVSVKGIYKQMPGCFNFLRKKLFFKTS
B2: ^402GCFNF^406AAAAA: Caspase-9 homodimerization domain mutant (SEQ ID NOS 95 and 99) (protein, UniProt P55211 1-416, looked up, variant G402A C403A F404A N405A F406A)
chain: B1 chain with V317T, I319F, G402A, C403A, F404A, N405A, F406A
B3: D330E (protein)
chain: GFGDVGALESLRGNADLAYILSMEPCGHCLIINNVNFCRESGLRTRTGSNIDCEKLRRRFSSLHFMVEVKGDLTAKKMVLALLELAQQDHGALDCCVVVILSHGCQASHLQFPGAVYGTDGCPVSVEKIVNIFNGTSCPSLGGKPKLFFIQACGGEQKDHGFEVASTSPEDESPGSNPEPDATPFQEGLRTFDQLEAISSLPTPSDIFVSYSTFPGFVSWRDPKSGSWYVETLDDIFEQWAHSEDLQSLLLRVANAVSVKGIYKQMPGCFNFLRKKLFFKTS
B4: D327G (protein)
chain: B3 chain with D193G, E196D
B5: D330A-N405T (protein)
chain: B3 chain with E196A, N271T
B6: D315A (protein)
chain: B3 chain with D181A, E196D
B7: L329K (protein)
chain: B3 chain with L195K, E196D
B8: T317C (protein)
chain: B3 chain with T183C, E196D
B9: D327R (protein)
chain: B3 chain with D193R, E196D
B10: F404S (protein)
chain: B3 chain with E196D, F270S
B11: A331K (protein)
chain: B3 chain with E196D, A197K
B12: N405T (protein)
chain: B3 chain with E196D, N271T
B13: N405F (protein)
chain: B3 chain with E196D, N271F
B14: F319W (protein)
chain: B3 chain with F185W, E196D
B15: F404A (protein)
chain: B3 chain with E196D, F270A
B16: D315A-D330A (protein)
chain: B3 chain with D181A, E196A
B17: F404W (protein)
chain: B3 chain with E196D, F270W
B18: Q328R (protein)
chain: B3 chain with Q194R, E196D
B19: C403A (protein)
chain: B3 chain with E196D, C269A
B20: Y153F (protein)
chain: B3 chain with Y19F, E196D
B21: A316G (protein)
chain: B3 chain with A182G, E196D
B22: F406T (protein)
chain: B3 chain with E196D, F272T
B23: Q328K (protein)
chain: B3 chain with Q194K, E196D
B24: L329G (protein)
chain: B3 chain with L195G, E196D
B25: P318A (protein)
chain: B3 chain with P184A, E196D
B26: N405A (protein)
chain: B3 chain with E196D, N271A
B27: F319A (protein)
chain: B3 chain with F185A, E196D
B28: D327K (protein)
chain: B3 chain with D193K, E196D
B29: C403T (protein)
chain: B3 chain with E196D, C269T
B30: T317E (protein)
chain: B3 chain with T183E, E196D
B31: F404T (protein)
chain: B3 chain with E196D, F270T
B32: Y153A (protein)
chain: B3 chain with Y19A, E196D
B33: C403S (protein)
chain: B3 chain with E196D, C269S
B34: F406L (protein)
chain: B3 chain with E196D, F272L
B35: F326K (protein)
chain: B3 chain with F192K, E196D
B36: S307A (protein)
chain: B3 chain with S173A, E196D

system: chimeric Caspase-9 polypeptide; experiment: Caspase mutant classes and basal activity (Table 3); assay type: cell-based, human; details: class heading of Table 3
Sequence (as listed by the source, change not shown): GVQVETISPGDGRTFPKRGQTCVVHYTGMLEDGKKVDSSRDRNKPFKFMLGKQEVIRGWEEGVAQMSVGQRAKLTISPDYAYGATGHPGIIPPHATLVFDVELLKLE

| Molecule | Basal Activity |
| --- | --- |
| B1 | Similar |
| B2 | dead |
| B3 | Decreased |
| B4 | Increased |
| B5 | Increased |
| B6 | Decreased |
| B7 | Increased |
| B8 | Similar |
| B9 | Increased |
| B10 | dead |
| B11 | Increased |
| B12 | Increased |
| B13 | Decreased |
| B14 | Decreased |
| B15 | dead |
| B16 | dead |
| B17 | Decreased |
| B18 | Increased |

| Molecule | Basal Activity |
| --- | --- |
| B19 | Similar |
| B20 | Decreased |
| B21 | Decreased |
| B22 | Decreased |
| B23 | Increased |
| B24 | Increased |
| B25 | Similar |
| B26 | Similar |
| B27 | Similar |
| B28 | Increased |
| B29 | Similar |
| B30 | Increased |
| B31 | Decreased |
| B32 | Decreased |
| B33 | Similar |
| B34 | dead |
| B35 | Increased |
| B36 | Decreased |

same assay, conditions: class heading of Table 3; ligand IC50

| Molecule | IC50 |
| --- | --- |
| B1 | Similar |
| B3 | higher IC50 |
| B6 | much higher |
| B8 | Similar |
| B13 | much higher |
| B14 | much higher |
| B17 | much higher |
| B19 | Similar |
| B20 | much higher |
| B21 | much higher |
| B22 | much higher |
| B25 | Similar |
| B26 | Similar |
| B27 | Similar |
| B29 | Similar |
| B31 | much higher |
| B32 | much higher |
| B33 | Similar |
| B36 | much higher |
